The values below come from patent US20140087995A1 (published 2014).

Numbered stars: 1 amine (or outer) side, 2 acyl side, 3 side chain; on linkers, the order of the positions; unused ones are H or OH. Bridge positions count the residues as written; N and C are the ends. Side chains are listed from the residue outwards. Ends that are not written are not given here. * marks the point of attachment. C20 diacid = O=C(O)CCCCCCCCCCCCCCCCCCC(=O)*; γGlu = O=C(O)[C@H](CCC(=O)[*:2])N[*:1]; AEEA = NCCOCCOCC(=O)O

The target of assay [1] is T1, human calcitonin receptor (human, UniProt P30988 25-474).
T1 construct: whole, on cells; Used as membranes prepared from a BHK tk'ts 13 cell line stably transfected with the human calcitonin receptor (Assay VII); also called hCTR; hCT
T1 sequence (looked up): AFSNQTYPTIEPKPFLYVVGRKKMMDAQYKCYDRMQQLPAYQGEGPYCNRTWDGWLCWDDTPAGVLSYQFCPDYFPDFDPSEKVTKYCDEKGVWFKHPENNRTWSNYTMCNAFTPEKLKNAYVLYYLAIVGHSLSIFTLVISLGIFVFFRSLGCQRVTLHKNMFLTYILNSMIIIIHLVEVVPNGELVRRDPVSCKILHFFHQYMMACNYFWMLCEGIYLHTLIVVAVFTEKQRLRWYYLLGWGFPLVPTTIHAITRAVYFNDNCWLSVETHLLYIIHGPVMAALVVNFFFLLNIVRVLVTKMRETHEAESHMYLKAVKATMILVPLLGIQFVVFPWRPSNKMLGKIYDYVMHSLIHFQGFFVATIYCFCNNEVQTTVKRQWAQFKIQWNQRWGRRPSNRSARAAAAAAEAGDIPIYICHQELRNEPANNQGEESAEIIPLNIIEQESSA
As to the kind of experiment: IC50 on human CTR divided by IC50 on human amylin receptor (Assays VII/V). As for the experimental part:
The resulting pellet was resuspended, homogenized and centrifuged (20.000 rpm, 15 min) in a buffer containing 20 mM Na-HEPES and 0.1 mM EDTA (pH 7.4, buffer 2). The resulting pellet was resuspended in buffer 2 and protein concentration was measured (BCA protein Assay, Pierce). The homogenate was kept cold during the whole procedure. The membranes were kept at −80° C. until use. The assay was performed in a 384 well Optiplate (PerkinElmer) in a total volume of 40 ul. Membranes were mixed with SPA beads. Final concentration of membranes 35 ng/μL final and SPA beads was 0.05 mg/well. Test-compounds were dissolved in DMSO and further diluted in assay buffer (50 mM Hepes, pH 7.4, 1 mM CaCl2, 5 mM MgCl₂, 0.1% OA and 0.02% Tween20). […] The final mixture was incubated with shaking at 400 rpm for 120 min at 25° C. prior to centrifugation (1500 rpm, 10 min). Samples were analyzed on TopCounter™ (Packard). The IC₅₀ was calculated using (one site binding competition analysis) GraphPad Prism5 as a measure of receptor affinity.
Membranes were prepared in the following way; the cells were rinsed with PBS and incubated with Versene for approximately 5 min before harvesting. The cells were flushed with PBS and the cell-suspension was centrifuged for 5 min at 1000 rpm. Cells were homogenized (Ultrathurrax) in a buffer containing 20 mM Na-HEPES and 10 mM EDTA (pH 7.4) and centrifuged at 20.000 rpm for 15 min. The resulting pellet was resuspended, homogenized and centrifuged (20.000 rpm, 15 min) in a buffer containing 20 mM Na-HEPES and 0.1 mM EDTA (pH 7.4, buffer 2). The resulting pellet was resuspended in buffer 2 and protein concentration was measured (BCA protein Assay, Pierce). The homogenate was kept cold during the whole procedure. The membranes were kept at −80° C. until use. Assay was performed in a 384 well Optiplate (PerkinElmer) in a total volume of 40 ul. Membranes were mixed with SPA beads.

The target in assay [2] is T2, rat calcitonin receptor (rat, UniProt P32214 25-516).
T2 construct: whole, on cells; Used as membranes prepared from BHK tk'ts 13 cells transiently transfected with the rat calcitonin receptor (Assay VIII); also called rCTR; rat calcitonin (a) receptor
T2 sequence (looked up): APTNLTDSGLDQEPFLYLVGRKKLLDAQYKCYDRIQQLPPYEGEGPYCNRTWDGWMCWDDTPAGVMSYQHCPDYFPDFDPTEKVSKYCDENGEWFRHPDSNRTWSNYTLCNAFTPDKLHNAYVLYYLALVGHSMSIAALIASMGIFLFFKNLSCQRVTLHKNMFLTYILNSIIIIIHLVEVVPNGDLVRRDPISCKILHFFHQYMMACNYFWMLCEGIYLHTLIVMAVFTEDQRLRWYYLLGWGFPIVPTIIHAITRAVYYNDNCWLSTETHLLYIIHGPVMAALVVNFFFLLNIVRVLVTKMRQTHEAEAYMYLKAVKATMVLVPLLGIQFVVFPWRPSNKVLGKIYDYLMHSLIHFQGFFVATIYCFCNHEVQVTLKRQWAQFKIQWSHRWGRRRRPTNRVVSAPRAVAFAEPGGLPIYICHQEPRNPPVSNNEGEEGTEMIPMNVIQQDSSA
Nature of the assay: SPA competition with 125I-calcitonin, membranes of BHK cells with rat CTR (Assay VIII).

Assay [3] concerns the target T3, rat amylin receptor (rat calcitonin receptor + rat RAMP 3) (rat, UniProt P32214 25-516; Q9JJ73 23-147).
T3 construct: whole, on cells; Used as membranes prepared from BHK tk'ts 13 cells transiently transfected with rat calcitonin receptor and rat RAMP 3 (Assay VI); also called rAmylin-R; rat amylin 3(a) receptor
T3 sequence (looked up) 1: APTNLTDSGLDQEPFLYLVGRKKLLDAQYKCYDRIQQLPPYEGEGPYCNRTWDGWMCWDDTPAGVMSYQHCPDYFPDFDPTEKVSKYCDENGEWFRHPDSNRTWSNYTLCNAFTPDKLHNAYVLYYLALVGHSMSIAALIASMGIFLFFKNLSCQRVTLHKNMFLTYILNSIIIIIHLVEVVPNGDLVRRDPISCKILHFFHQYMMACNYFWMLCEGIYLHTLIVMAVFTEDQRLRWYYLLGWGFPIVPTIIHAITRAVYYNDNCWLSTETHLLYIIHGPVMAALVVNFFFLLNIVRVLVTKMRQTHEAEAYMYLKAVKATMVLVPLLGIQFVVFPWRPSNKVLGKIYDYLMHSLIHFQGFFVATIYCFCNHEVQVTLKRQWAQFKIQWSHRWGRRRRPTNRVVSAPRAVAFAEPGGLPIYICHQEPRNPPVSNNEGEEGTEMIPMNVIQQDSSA
T3 sequence (looked up) 2: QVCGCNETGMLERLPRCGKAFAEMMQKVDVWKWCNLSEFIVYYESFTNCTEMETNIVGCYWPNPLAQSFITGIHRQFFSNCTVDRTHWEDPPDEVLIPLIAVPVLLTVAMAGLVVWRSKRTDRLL
Nature of the assay: SPA competition with 125I-rat amylin, membranes of BHK cells with rat CTR + rat RAMP3 (Assay VI). As for the experimental part: The binding assay was performed using scintillation proximity assay (SPA) beads (RPNQ0001) from PerkinElmer and cell membranes from the Amylin 3(a)/CRE-luc cells (as described in Assay (II)) were used. Membranes were prepared in the following way; the cells were rinsed with PBS and incubated with Versene for approximately 5 min before harvesting. The cells were flushed with PBS and the cell-suspension was centrifuged for 5 min at 1000 rpm. Cells were homogenized (ultrathurrax) in a buffer containing 20 mM Na-HEPES and 10 mM EDTA (pH 7.4) and centrifuged at 20.000 rpm for 15 min. The resulting pellet was resuspended, homogenized and centrifuged (20.000 rpm, 15 min) in a buffer containing 20 mM Na-HEPES and 0.1 mM EDTA (pH 7.4, buffer 2). The resulting pellet was resuspended in buffer 2 and protein concentration was measured (BCA protein Assay, Pierce). The homogenate was kept cold during the whole procedure. The membranes were kept at −80° C. until use. The assay was performed in a 384 well Optiplate (PerkinElmer) in a total volume of 40 ul. Membranes were mixed with SPA beads. Final concentration of membranes 35 ng/μL final and SPA beads was 0.05 mg/well. Test-compounds were dissolved in DMSO and further diluted in assay buffer (50 mM Hepes, pH 7.4, 1 mM CaCl2, 5 mM MgCl₂, 0.1% OA and 0.02% Tween20). […] The final mixture was incubated with shaking at 400 rpm for 120 min at 25° C. prior to centrifugation (1500 rpm, 10 min). Samples were analyzed on TopCounter™ (Packard). The IC₅₀ was calculated using (one site binding competition analysis) GraphPad Prism5 as a measure of receptor affinity.
Cells were grown in DMEM with 10% FBS and 1% Pen/Strep. Approximately 48 hours after transfection, the cells were harvested and membranes were prepared.

Assay [4] concerns the target T2, rat calcitonin receptor. Nature of the assay: IC50 on rat CTR divided by IC50 on rat amylin receptor (Assays VIII/VI).

B1: N^ε1-[2-[2-[2-(19-carboxynonadecanoylamino)ethoxy]ethoxy]acetyl]-[Arg17,Pro21,Pro27]-h-amylin (peptide)
peptide: K([AEEA-C20 diacid])CNTATCATQRLANFLRHSSPNFGAIPSSTNVGSNTY-NH2
modifications: disulfide 2-7; N-terminus assumed
SMILES: CC[C@H](C)[C@H](NC(=O)[C@H](C)NC(=O)CNC(=O)[C@H](Cc1ccccc1)NC(=O)[C@H](CC(N)=O)NC(=O)[C@@H]1CCCN1C(=O)[C@H](CO)NC(=O)[C@H](CO)NC(=O)[C@H](Cc1c[nH]cn1)NC(=O)[C@H](CCCNC(=N)N)NC(=O)[C@H](CC(C)C)NC(=O)[C@H](Cc1ccccc1)NC(=O)[C@H](CC(N)=O)NC(=O)[C@H](C)NC(=O)[C@H](CC(C)C)NC(=O)[C@H](CCCNC(=N)N)NC(=O)[C@H](CCC(N)=O)NC(=O)[C@@H](NC(=O)[C@H](C)NC(=O)[C@@H]1CSSC[C@H](NC(=O)[C@@H](N)CCCCNC(=O)COCCOCCNC(=O)CCCCCCCCCCCCCCCCCCC(=O)O)C(=O)N[C@@H](CC(N)=O)C(=O)N[C@@H]([C@@H](C)O)C(=O)N[C@@H](C)C(=O)N[C@@H]([C@@H](C)O)C(=O)N1)[C@@H](C)O)C(=O)N1CCC[C@H]1C(=O)N[C@@H](CO)C(=O)N[C@@H](CO)C(=O)N[C@H](C(=O)N[C@@H](CC(N)=O)C(=O)N[C@H](C(=O)NCC(=O)N[C@@H](CO)C(=O)N[C@@H](CC(N)=O)C(=O)N[C@H](C(=O)N[C@@H](Cc1ccc(O)cc1)C(N)=O)[C@@H](C)O)C(C)C)[C@@H](C)O
notes: Analogue of human amylin; also called compound 43
Broadly, the IC50 is the point on the concentration scale where inhibition reaches its midpoint. As to B1, the “Ratio hCT/hAmylin binding” value in assay [1] amounted to 34.7. For the same molecule, the IC50 with rat calcitonin receptor [2] was 7.6 nM; in assay [3] it was 0.11 nM. In the assay with rat calcitonin receptor [4], the “Ratio rCT/rAmylin binding” value is 69.1.

B2: N^ε1-[2-[2-[2-[[(4S)-4-carboxy-4-(19-carboxynonadecanoylamino)butanoyl]amino]ethoxy]ethoxy]acetyl]-[Ala14,Arg17,Pro21,Pro27,Pro31]-h-amylin (peptide)
peptide: K([AEEA-γGlu-C20 diacid])CNTATCATQRLAAFLRHSSPNFGAIPSSTPVGSNTY-NH2
modifications: disulfide 2-7; N-terminus assumed
SMILES: CC[C@H](C)[C@H](NC(=O)[C@H](C)NC(=O)CNC(=O)[C@H](Cc1ccccc1)NC(=O)[C@H](CC(N)=O)NC(=O)[C@@H]1CCCN1C(=O)[C@H](CO)NC(=O)[C@H](CO)NC(=O)[C@H](Cc1c[nH]cn1)NC(=O)[C@H](CCCNC(=N)N)NC(=O)[C@H](CC(C)C)NC(=O)[C@H](Cc1ccccc1)NC(=O)[C@H](C)NC(=O)[C@H](C)NC(=O)[C@H](CC(C)C)NC(=O)[C@H](CCCNC(=N)N)NC(=O)[C@H](CCC(N)=O)NC(=O)[C@@H](NC(=O)[C@H](C)NC(=O)[C@@H]1CSSC[C@H](NC(=O)[C@@H](N)CCCCNC(=O)COCCOCCNC(=O)CC[C@H](NC(=O)CCCCCCCCCCCCCCCCCCC(=O)O)C(=O)O)C(=O)N[C@@H](CC(N)=O)C(=O)N[C@@H]([C@@H](C)O)C(=O)N[C@@H](C)C(=O)N[C@@H]([C@@H](C)O)C(=O)N1)[C@@H](C)O)C(=O)N1CCC[C@H]1C(=O)N[C@@H](CO)C(=O)N[C@@H](CO)C(=O)N[C@H](C(=O)N1CCC[C@H]1C(=O)N[C@H](C(=O)NCC(=O)N[C@@H](CO)C(=O)N[C@@H](CC(N)=O)C(=O)N[C@H](C(=O)N[C@@H](Cc1ccc(O)cc1)C(N)=O)[C@@H](C)O)C(C)C)[C@@H](C)O
notes: Analogue of human amylin; also called compound 72
With B2, in assay [1], the “Ratio hCT/hAmylin binding” value came to 247. Moreover, the figures for the IC50 (with rat calcitonin receptor [2]; in assay [3]) were 221 nM and 0.851 nM, respectively. Further, in the assay with rat calcitonin receptor [4], the “Ratio rCT/rAmylin binding” value stood at 259.

B3: N^ε1-[2-[2-[2-[[(4S)-4-carboxy-4-(19-carboxynonadecanoylamino)butanoyl]amino]ethoxy]ethoxy]acetyl]-[Arg14,Arg17,Pro21,Pro27,Pro31]-h-amylin (peptide)
peptide: K([AEEA-γGlu-C20 diacid])CNTATCATQRLARFLRHSSPNFGAIPSSTPVGSNTY-NH2
modifications: disulfide 2-7; N-terminus assumed
SMILES: CC[C@H](C)[C@H](NC(=O)[C@H](C)NC(=O)CNC(=O)[C@H](Cc1ccccc1)NC(=O)[C@H](CC(N)=O)NC(=O)[C@@H]1CCCN1C(=O)[C@H](CO)NC(=O)[C@H](CO)NC(=O)[C@H](Cc1c[nH]cn1)NC(=O)[C@H](CCCNC(=N)N)NC(=O)[C@H](CC(C)C)NC(=O)[C@H](Cc1ccccc1)NC(=O)[C@H](CCCNC(=N)N)NC(=O)[C@H](C)NC(=O)[C@H](CC(C)C)NC(=O)[C@H](CCCNC(=N)N)NC(=O)[C@H](CCC(N)=O)NC(=O)[C@@H](NC(=O)[C@H](C)NC(=O)[C@@H]1CSSC[C@H](NC(=O)[C@@H](N)CCCCNC(=O)COCCOCCNC(=O)CC[C@H](NC(=O)CCCCCCCCCCCCCCCCCCC(=O)O)C(=O)O)C(=O)N[C@@H](CC(N)=O)C(=O)N[C@@H]([C@@H](C)O)C(=O)N[C@@H](C)C(=O)N[C@@H]([C@@H](C)O)C(=O)N1)[C@@H](C)O)C(=O)N1CCC[C@H]1C(=O)N[C@@H](CO)C(=O)N[C@@H](CO)C(=O)N[C@H](C(=O)N1CCC[C@H]1C(=O)N[C@H](C(=O)NCC(=O)N[C@@H](CO)C(=O)N[C@@H](CC(N)=O)C(=O)N[C@H](C(=O)N[C@@H](Cc1ccc(O)cc1)C(N)=O)[C@@H](C)O)C(C)C)[C@@H](C)O
notes: Analogue of human amylin; also called compound 64
On to B3, for which, in assay [1], the “Ratio hCT/hAmylin binding” value amounted to 126. In addition, the figures for the IC50 (with rat calcitonin receptor [2]; in assay [3]) were 128 nM and 1.97 nM, respectively. Also, the “Ratio rCT/rAmylin binding” value with rat calcitonin receptor [4] was determined as 64.7.
